Data as given in the supplement of paper PMC12042874.
± gives the uncertainty stated by the source.

Experiment: amyloid nucleation score (Sup35N fusion, yeast selection) (log enrichment); library NNK3; higher = more nucleation; inactive = no reads after selection
How it was run: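 In psi-negative yeast, Sup35N fusions carrying peptides of 20 random codons were induced with 100 μM copper sulfate for 24 hours. The cells then grew 7 days at 30°C on medium lacking adenine and uracil, and plasmid inserts from input and output were Illumina-sequenced, excluding sequences with under 100 input reads. Nucleation score is the DiMSum log enrichment of output over input reads, centred on the mode score of non-aggregating sequences.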

Substance	amyloid nucleation score
TCSTGAGNFCVCDFRLVRMR	inactive
TDHNDLMKLFATRCSPNPCL	inactive
TDILLYMIFVLHVVSNGVLG	inactive
TDVIYVDGPLA	inactive
TDVVSSVILRYSFFGHVNEF	inactive
TDVYHQNAQYHRVYNLQGRV	inactive
TENISFECYMEIY	inactive
TENISVCGYYYRMIALDMFW	inactive
TEYTILLASRNLFPTR	0.598 ± 0.25
TFDPKL	inactive
TFLLCVVDGCCICRRGSCAS	2.2 ± 0.096
TFLNRIQWSKWILN	inactive
TFRTTGM	inactive
TFSNNYPFSRWGCFSVLAV	inactive
TFVKSVLSYVLGLELSLRGL	inactive
TFVVSVMHKCAW	1.18 ± 0.11
TGDGTWS	inactive
TGILRNFSCFSFWFWVIRIT	1.46 ± 0.097
TGSDAYSMRMPRQPPISFVV	inactive
TGVVMCLGIEMINDYIPVLN	inactive
TGYHGHTPFSYDQYEFHLRV	inactive
TGYLAMWLY	inactive
TGYLQLYRTADDRGLEYCIM	inactive
THDAVNFVLRHWAITGNTDM	inactive

Substance	amyloid nucleation score
THEHMRHC	inactive
THGREGYASSSSSLGPGSIS	-0.08 ± 0.44
THMATNLAGMYREAHGSGGI	inactive
THPVSCRYVSPDMSSAHYFV	inactive
THYEVWGLT	inactive
TIFECRRASFNVSVEMGR	inactive
TIFMWCV	1.64 ± 0.097
TIFSIDFIIVYT	1.81 ± 0.057
TIIRLIFIWAFFGSGICGRV	inactive
TIMCNIWLGFRT	2.01 ± 0.096
TINIQCALGMNQT	1.17 ± 0.11
TINRLLICI	-0.14 ± 0.57
TIQCMCFCSNRVLTIIVQLS	-0.61 ± 0.75
TISGLNM	inactive
TISIVTWDIVRSKCMRRKVL	inactive
TIVFCIVLGWLEFHRHFVSD	inactive
TIWSCMCVMWITRPSNTRRP	inactive
TIWSITFLGCKLELTEKCLV	0.979 ± 0.24
TIYNEGCVCKVYKESLGGSA	inactive
TKAAMPRNNYLFILY	-0.278 ± 0.71
TKCVLNGRRLSLCPLDNSMR	inactive
TKFIMKRLLVERVSCFLRSH	inactive
TKSMVKNLHALPSIKRGVFV	inactive
TKTHCFLLLSGVCVGRVLGW	inactive

Substance	amyloid nucleation score
TLDGLLRASMYSLIYWLVLM	inactive
TLFEMYNVTFIMKNGLQES	1.96 ± 0.062
TLFNLFRVKLIDEPNLAKWL	inactive
TLGSAEDMYRQPRIANTDSC	-0.123 ± 0.59
TLLIRCYPYIMLYRFAASTD	inactive
TLLRHVNNDGGSVSLGTMLA	inactive
TLLSFAHYHHLWSHLVYRSV	inactive
TLSLACGSYVQCSMEFLSSG	1.6 ± 0.08
TLSLVQQSR	inactive
TLTRVRTRCTKWRFICNCPM	0.254 ± 0.34
TLTWHNVWGCICGKFLTV	inactive
TLVGYLIARLFWR	inactive
TLWMGF	inactive
TLYCRYFG	1.01 ± 0.23
TMAEGL	inactive
TMIFMLVI	inactive
TMLDLGDKYVMLFEQVDSFF	inactive
TMSRRAARMQCAILVPSRLL	inactive
TNDFVNV	inactive
TNDTLFFVTSLVADPVERIS	inactive
TNGKEWWNCVYGERTVNAFA	inactive
TNGLVLHRSWLEFFLYYTQR	inactive
TNLWFKNLSMFMGIVSLART	inactive
TNNAIGVFSLECIGFPEAGR	inactive

Substance	amyloid nucleation score
TNNEDKFWRVVLNLGTVTSD	inactive
TNRPMNGSYNNMWSRINLMV	inactive
TNTNTCL	inactive
TNVSEFQALTWMNTWYSAFS	inactive
TNVTANGVKPHPYPMRSPAT	inactive
TPKTLDWAYGYNIVSGKAIN	inactive
TPLDDLMCQLCSGYPLVILP	inactive
TPRKTLSDVLFFRLILS	inactive
TPRLSMDHTFVRWDCV	inactive
TPSLAIKK	inactive
TQAWSTL	inactive
TQDRYAISIRLVSTQLKLMS	inactive
TQESRDIGFTAPRGRICTQG	inactive
TQFTLCTIHSVLCVNA	2.06 ± 0.078
TRASRRKSHSTSMDLPIRRH	inactive
TRCYRASE	inactive
TRFLFCFNWIWGEPVACEYE	2.39 ± 0.07
TRKMLLVVSKYVMTPYGFGL	inactive
TRLCFIAVPLSFFMVWDTSR	inactive
TRLSSFRKIKEIYLLTQWKP	inactive
TRNIMRSIMVPSTWRVFITV	inactive
TRNMIMRRKSTLRHLVTEAD	inactive
TRRGSDLPSVLAMFLSKSTR	inactive
TRRSKGQFIYCPSNGMKCSG	inactive

Substance	amyloid nucleation score
TRSRFWRRTKLPLVSVRYHN	inactive
TRSVFIHVYW	0.095 ± 0.5
TRWRLSVYERVGARRDTPLC	inactive
TRWRSLSEGPSVGLEITPRF	inactive
TRYCVVNW	-0.511 ± 0.56
TRYPFQWLLRVGWKGAHLGM	inactive
TSFGMSTPCQAFARSVDDRG	inactive
TSGGTFQDATSHNSNSHMWK	inactive
TSGWEFRRFPNFQLLILSCF	inactive
TSLEN	inactive
TSLGNGVSHGTLGFILTVNT	inactive
TSNALYLLLLRHLYNMLLHV	inactive
TSRTGRMEYISRELGQRVWM	inactive
TSSWYFILDVHCGSEGNSEA	0.438 ± 0.28
TTCYTLFSTDENDNSKWICG	inactive
TTKQKV	inactive
TTNSQAWPMLTAVRLVYNEG	inactive
TTRRSTYGFEIKYILIVFVH	inactive
TTSLMSKVFY	inactive
TTTFKLGISKSLDVSTRLRG	0.31 ± 0.14
TVAMR	inactive
